Experimental findings from patent US20210100886A1, “WT1 CANCER ANTIGEN PEPTIDES AND PEPTIDE CONJUGATES COMPRISING THE PEPTIDES” (SUMITOMO DAINIPPON PHARMA CO., LTD., priority 2017, published 2021) are described below.

Where no end group is shown, it is not given here.

The target in the first assay is endoplasmic reticulum aminopeptidase 1 (UniProt Q9NZ08 1-941, limits assumed). Kind of assay: cell-based or functional assay.
Chain of endoplasmic reticulum aminopeptidase 1 (Q9NZ08 whole entry): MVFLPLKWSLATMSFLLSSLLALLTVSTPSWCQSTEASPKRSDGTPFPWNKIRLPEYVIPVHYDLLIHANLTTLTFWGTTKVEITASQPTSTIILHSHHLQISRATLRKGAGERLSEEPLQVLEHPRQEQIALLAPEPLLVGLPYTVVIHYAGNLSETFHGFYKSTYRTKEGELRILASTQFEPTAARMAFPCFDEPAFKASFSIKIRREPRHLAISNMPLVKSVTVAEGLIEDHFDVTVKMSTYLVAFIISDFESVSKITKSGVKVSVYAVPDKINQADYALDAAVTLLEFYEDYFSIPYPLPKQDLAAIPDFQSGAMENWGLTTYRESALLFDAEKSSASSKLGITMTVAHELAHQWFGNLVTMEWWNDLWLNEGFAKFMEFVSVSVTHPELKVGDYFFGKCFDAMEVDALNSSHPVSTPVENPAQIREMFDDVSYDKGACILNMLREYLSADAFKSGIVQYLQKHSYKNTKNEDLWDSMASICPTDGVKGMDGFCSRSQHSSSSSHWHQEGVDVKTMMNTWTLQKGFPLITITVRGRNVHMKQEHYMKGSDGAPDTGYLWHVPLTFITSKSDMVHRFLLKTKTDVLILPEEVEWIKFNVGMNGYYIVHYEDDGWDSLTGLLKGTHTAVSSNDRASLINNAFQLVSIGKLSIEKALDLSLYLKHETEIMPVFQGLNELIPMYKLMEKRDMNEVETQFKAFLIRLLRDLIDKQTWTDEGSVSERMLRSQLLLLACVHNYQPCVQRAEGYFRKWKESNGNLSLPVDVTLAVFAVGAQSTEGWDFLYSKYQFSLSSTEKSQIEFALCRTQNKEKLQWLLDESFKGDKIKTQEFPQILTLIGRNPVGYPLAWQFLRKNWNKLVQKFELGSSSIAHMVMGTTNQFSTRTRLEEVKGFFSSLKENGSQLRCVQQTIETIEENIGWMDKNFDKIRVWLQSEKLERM
Conditions: not given
As to FCYTWNQMNL (also: TFA salt) [peptide FCYTWNQMNL (SEQ ID NO: 38)], the “Production Rate of SEQ ID NO: 4” value stood at 18.4%.

For KCYTWNQMNL (also: TFA salt) [peptide KCYTWNQMNL (SEQ ID NO: 36)], the “Production Rate of SEQ ID NO: 4” value came to 45%.

As to SCYTWNQMNL (also: TFA salt) [peptide SCYTWNQMNL (SEQ ID NO: 63)], the “Production Rate of SEQ ID NO: 4” value was 24.6%.

For the molecule TCYTWNQMNL (also: TFA salt) [peptide TCYTWNQMNL (SEQ ID NO: 64)], the “Production Rate of SEQ ID NO: 4” value came to 15.6%.

Take WCYTWNQMNL (also: TFA salt) [peptide WCYTWNQMNL (SEQ ID NO: 66)]: the “Production Rate of SEQ ID NO: 4” value is 5.2%.

As to MCYTWNQMNL (also: TFA salt) [peptide MCYTWNQMNL (SEQ ID NO: 60)], the “Production Rate of SEQ ID NO: 4” value amounted to 32.1%.

As for PCYTWNQMNL (also: TFA salt) [peptide PCYTWNQMNL (SEQ ID NO: 62)], the “Production Rate of SEQ ID NO: 4” value came to 11.1%.

For QCYTWNQMNL (also: TFA salt) [peptide QCYTWNQMNL (SEQ ID NO: 30)], the “Production Rate of SEQ ID NO: 4” value is 32.5%.

With VCYTWNQMNL (also: TFA salt) [peptide VCYTWNQMNL (SEQ ID NO: 65)], the “Production Rate of SEQ ID NO: 4” value was 5.1%.

On to RCYTWNQMNL (also: TFA salt) [peptide RCYTWNQMNL (SEQ ID NO: 28)], for which the “Production Rate of SEQ ID NO: 4” value worked out at 49.2%.

With ECYTWNQMNL (also: TFA salt) [peptide ECYTWNQMNL (SEQ ID NO: 32)], the “Production Rate of SEQ ID NO: 4” value is 32.5%.

For the molecule ACYTWNQMNL (also: TFA salt) [peptide ACYTWNQMNL (SEQ ID NO: 55)], the “Production Rate of SEQ ID NO: 4” value amounted to 10%.

Turning to HCYTWNQMNL (also: TFA salt) [peptide HCYTWNQMNL (SEQ ID NO: 34)], the “Production Rate of SEQ ID NO: 4” value is 24.4%.

Regarding NCYTWNQMNL (also: TFA salt) [peptide NCYTWNQMNL (SEQ ID NO: 61)], the “Production Rate of SEQ ID NO: 4” value amounted to 29.1%.

Turning to ICYTWNQMNL (also: TFA salt) [peptide ICYTWNQMNL (SEQ ID NO: 58)], the “Production Rate of SEQ ID NO: 4” value is 2.8%.

With CCYTWNQMNL (cysteine pairing not given here; also: TFA salt) [peptide CCYTWNQMNL (SEQ ID NO: 10)], the “Production Rate of SEQ ID NO: 4” value came to 20.3%.

Regarding YCYTWNQMNL (also: TFA salt) [peptide YCYTWNQMNL (SEQ ID NO: 40)], the “Production Rate of SEQ ID NO: 4” value came out at 35.2%.

Turning to LCYTWNQMNL (also: TFA salt) [peptide LCYTWNQMNL (SEQ ID NO: 59)], the “Production Rate of SEQ ID NO: 4” value worked out at 5.8%.

In another assay the test system is HLA-A*24:02 transgenic mouse. Kind of assay: In vivo CTL induction in HLA-A*24:02 transgenic mouse (IFNγ ELISPOT assay of splenocytes). The note with it: peptide 280 μg per site, intradermal Montanide ISA 51 VG emulsion, two sites; one week after administration. As for the experimental part: The HLA-A*24:02 transgenic mouse (C57BL/6CrHLA-A2402/K^b) is a mouse that expresses a chimeric HLA of a human MHC, HLA-A*24:02 with a mouse MHC, H-2K^b.
The solution was diluted with water for injection to a concentration of 10 mg/mL, and then converted to an emulsion by addition of an equal volume of Montanide ISA 51 VG. […] The concentrations of DMSO contained in emulsions were also fixed. One week after the administration, the mice were sacrificed with CO2 gas. Splenocytes were harvested from spleens removed from the mice. For detecting IFNγ-producing splenocytes, an IFNγ ELISPOT assay kit was used. In particular, an ELISPOT plate was treated with an anti-mouse-IFNγ antibody on the day before preparation of the splenocyte samples. On the next day, the plate was blocked by treatment with an RPMI 1640 medium with 10% FBS. To the blocked ELISPOT plate, the splenocyte samples from the HLA-A*24:02 transgenic mice were added at 2.5×10^5 cells/well. For in vitro stimulation of the cells, the peptide of SEQ ID NO: 4 was dissolved in DMSO at a concentration of 40 mg/ml, diluted with RPMI 1640 with 10% FBS to 40 μg/ml, and added to the splenocyte-containing wells at a final concentration of 10 μg/ml. The plate was incubated for 18-20 hours at 37° C. under an atmosphere of 5% CO2. Then, after removal of the culture medium from the wells, the ELISPOT plate was subjected to treatment for cell staining in accordance with the manufacturer's protocol. Stained spots were counted on ImmunoSpot S6 Analyzer (C.T.L.). […]
For RCYTWNQMNL [SEQ ID NO: 28], the “induction of CTLs responsive to the peptide of SEQ ID NO: 4 (IFNγ-producing splenocytes)” value was “induced CTLs responsive to the peptide of SEQ ID NO: 4”.

Turning to QCYTWNQMNL [SEQ ID NO: 30], the “induction of CTLs responsive to the peptide of SEQ ID NO: 4 (IFNγ-producing splenocytes)” value is “induced CTLs responsive to the peptide of SEQ ID NO: 4”.

Turning to YCYTWNQMNL [SEQ ID NO: 40], the “induction of CTLs responsive to the peptide of SEQ ID NO: 4 (IFNγ-producing splenocytes)” value is “induced CTLs responsive to the peptide of SEQ ID NO: 4”.

For the molecule ECYTWNQMNL [SEQ ID NO: 32], the “induction of CTLs responsive to the peptide of SEQ ID NO: 4 (IFNγ-producing splenocytes)” value is “induced CTLs responsive to the peptide of SEQ ID NO: 4”.

In the case of KCYTWNQMNL [SEQ ID NO: 36], the “induction of CTLs responsive to the peptide of SEQ ID NO: 4 (IFNγ-producing splenocytes)” value is “induced CTLs responsive to the peptide of SEQ ID NO: 4”.

Regarding HCYTWNQMNL [SEQ ID NO: 34], the “induction of CTLs responsive to the peptide of SEQ ID NO: 4 (IFNγ-producing splenocytes)” value is “induced CTLs responsive to the peptide of SEQ ID NO: 4”.

For FCYTWNQMNL [SEQ ID NO: 38], the “induction of CTLs responsive to the peptide of SEQ ID NO: 4 (IFNγ-producing splenocytes)” value is reported as “induced CTLs responsive to the peptide of SEQ ID NO: 4”.
